This experiment has as its target anti-hCG monoclonal antibody from Organon Teknika, Boxtel, the Netherlands. The experiment in a line: competition: hCG displaces FpepT from anti-hCG Mab, fluorescence at 590 nm, fit to exchange model (K1).

For “human chorionic gonadotrophin (hCG) (from UniProt P01215 25-116; P0DN86 21-165) (ligand)”, the Kd (as a rule, the concentration at which binding is half-saturated) came out at 0.49 nM. In other words, the sub-nanomolar range.

These data come from patent US6576419.
